Values quoted from earlier work in article PMC6375914.

How the values were obtained:
Ubc9 (Homo sapiens) [1] = target: Ubc9 (Homo sapiens) (UniProt P63279); assay: SPR
Ubc9 (Homo sapiens) [2] = target: Ubc9 (Homo sapiens) (UniProt P63279); assay: ITC

UniProt P63279, sequence (P63279 2-158): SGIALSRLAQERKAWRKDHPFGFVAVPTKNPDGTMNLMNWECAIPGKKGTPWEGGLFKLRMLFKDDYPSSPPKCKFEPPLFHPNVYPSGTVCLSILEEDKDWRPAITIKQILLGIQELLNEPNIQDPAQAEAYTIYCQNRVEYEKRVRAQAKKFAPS

Kd (Ubc9 (Homo sapiens) [1]): 0.35 µM
Kd (Ubc9 (Homo sapiens) [2]): 0.25 µM
Substance: SUMO1 (from UniProt P63165)
